Assay [1] addresses LLO118_(high) single-chain TCR (scTCR), displayed on yeast (mouse). Description: flow cytometry on cells; tetramer decay on yeast-displayed scTCR: 6.5 µg/ml tetramer, 1.5 h, room temperature, washed, then anti-mouse MHC class II (M5/114.15.2) added and tetramer followed for 2-60 min; first round (Figure 2C); multivalent half-life. (In general: In flow cytometry, cells or beads pass a laser one at a time.)

Assay [2] addresses LLO56int single-chain TCR (scTCR), displayed on yeast (mouse). Described as above.
For assay [3] the target is unchanged. Description: flow cytometry on cells; tetramer decay on yeast-displayed scTCR as above, second round with lower levels of MHC inhibiting-antibody (Figure 2D); multivalent half-life.
Assay [4] has as its target LLO118_(high) single-chain TCR (scTCR), displayed on yeast (mouse). Description: flow cytometry on cells; scTCR displayed on yeast stained with LLO_(190-201)/I-A^b tetramer; histograms (Figure 1C).
The target in assay [5] is LLO56int single-chain TCR (scTCR), displayed on yeast (mouse). Described as above.
Assay [6] concerns the target LLO118int single-chain TCR (scTCR), displayed on yeast (mouse). Description: flow cytometry on cells.
Assay [7] deals with LLO118_(high) single-chain TCR (scTCR), displayed on yeast (mouse). As to the kind of experiment: flow cytometry on cells; tetramer titration on yeast-displayed scTCR: 1x10^6 induced cells, 0.152 nM to 12.16 nM tetramer, 1.5 h, room temperature; MFI normalised; KD = 50% maximum binding concentration, one site-specific fit; multivalent avidity; percent of cells bound (Figure 2B).

Assay [8] concerns the target LLO56int single-chain TCR (scTCR), displayed on yeast (mouse). Described as above.
Assay [9] addresses LLO118low single-chain TCR (scTCR), displayed on yeast (mouse). As to the kind of experiment: flow cytometry on cells.
The target of assay [10] is LLO56low single-chain TCR (scTCR), displayed on yeast (mouse). As to the kind of experiment: flow cytometry on cells.
In assay [11] the target is LLO118int single-chain TCR (scTCR), displayed on yeast (mouse). Description: flow cytometry on cells. The source holds these as a separate data set.

Read-outs that look alike come from different tables or passages of the source.

With “LLO_(190-201)/I-A^b tetramer (peptide-MHC)”, the t1/2 in assay [1] turned out to be 165 m; in assay [2] it was 1 m; in [3], 3.5 min. The log better tetramer binding than LLO118int in [4] turned out to be 1 log. In assay [4], this substance showed a log better tetramer binding than LLO118low of 2.5 log. Further, the log better tetramer binding than LLO56low in [5] amounted to 1.5 log. The other in assay [6] amounted to 6.7 min; in assay [9], 1.1%; in [10], 0.75%; in assay [11] it was 24.5%. Moreover, the Kd is 7.33 nM in assay [7], 39.2 nM in assay [8] and 44.8 nM in [11]. Moreover, the results for the percent of cells bound by tetramer in [7] and in assay [8] were 43.3% and 12.6%, respectively.

(Values after paper PMC7851051.)
